In the DeepSol protein solubility set:

Experiment: soluble on expression in E. coli; label from the status in PepcDB or PDB records
For “MSLGSTQLQLHGLLSNISSKEGTYAKLGGLYTQSLARLVAKCEDLFMGGQKKELHFNENNWSLFKLTCNKPCCDSGDAIYYCATCSEDPGSTYAVKICKAPEPKTVSYCSPSVPVHFNIQQDCGHFVASVPSSMLSSPDAPKDPVPALPTHPPAQEQDCVVVITREVPHQTASDFVRDSAASHQAEPEAYERRVCFLLLQLCNGLEHLKEHGIIHRDLCLENLLLVHCTLQAGPREKQLPRLIISNFLKAKQKPGGTPNLQQKKSQARLAPEIVSASQYRKFDEFQTGILIYELLHQPNPFEVRAQLRERDYRQEDLPPLPALSLYSPGLQQLAHLLLEADPIKRIRIGEAKRVLQCLLWGPRRELVQQPGTSEEALCGTLHNWIDMKRALMMMKFAEKAVDRRRGVELEDWLCCQYLASAEPGALLQSLKLLQEGHHHHHH”, the “soluble on expression in E. coli” value was “soluble”. With “MSLGSVKIVSDLPLQGANRAQTISMVNAIRLAIDQRGGKVAGLKIEYESLDDATAQSGQWDEGKCAENAQQAAQDEEIVGWIGPFNSGCAAVEIPILNEAGLVMISPANTYVGLTKEGGEPDEPDKYYPTGQRNYTRVIPADDKQGRLAAVLMREEGVRTVFILDDRETYGKGLADQVQKSAEEFGIEVVGRQGIDGSASNYRGLMNRVREANPDAIYFGGIIENNAGQLVRDKVGAGMPNDEVLFIGPDGIFVDTFIEQAGDAAEGAYVTFGGIPPERLGERGQRFIEEYNAKYPDDPIQAYTAYAYEAANVLLDAIERAQKADGEVNRENVLREVFATENYKGVLGTWSFDENGDTTLTKLSVQRVQNGEFKLDRVLDVSREGHHHHHH” the “soluble on expression in E. coli” value was “soluble”. For “MSLHGELDKIYETLALAERRGPGPVDLLLCCGDFQAVRNEADLRCMAVPPKYRHMQTFYRYYSGEKKAPVLTLFIGGNHEASNHLQELPYGGWVAPNIYYLGLAGVVKYRGVRIGGISGIFKSHDYRKGHFECPPYNSSTIRSIYHVRNIEVYKLKQLKQPIDIFLSHDWPRSIYHYGNKKQLLKTKSFFRQEVENNTLGSPAASELLEHLKPTYWFSAHLHVKFAALMQHQAKDKGQTARATKFLALDKCLPHRDFLQILEIEHDPSAPDYLEYDIEWLTILRATDDLINVTGRLWNMPENNGLHARWDYSATEEGMKEVLEKLNHDLKVPCNFSVTAACYDPSKPQTEGHHHHHH”, the “soluble on expression in E. coli” value was “soluble”. In the case of “MSLHIHILGICGTFMGGVAMLARQLGHKVTGSDANVYPPMSTMLEAQGIEIIEGFDPVQLEPKPDLVVIGNAMSRGNPCVEYVLNHNLRYTSGPQWLQDFLLHDRWVIAVSGTHGKTTTSSMIAWVLEHCGYQPGFLVGGVLGNFGISARLGESMFFVVEADEYDSAFFDKRSKFVHYHPRTLVMNNLEFDHADIFDNLEAIKRQFHHLVRTVPGNGRILAPKQDEALADVLQRGCWSETEFSGEQGEWQAEKITADGSQFHVLLKGERVGQVNWSLVGDHNVSNALMAIAAARHVGVAPELACEALGLFVNTKRRLELKGEINGVTVYDDFAHHPTAIELTLGGLRNKVGDKKIIAVLEPRSATMKLGVHKETLAASLHSADSVYLYQPSNIPWSVEEVAKQCQQPAQVSANMDEFVAMIAKEAQAGDQILVMSNGGFEGIHGKLLAALQQKEGHHHHHH”, the “soluble on expression in E. coli” value is reported as “soluble”. For “MSLHRSEKMKEIKEAYQQCGQIVGEYAPACFKALSYLPLKQRQASWAVLSFCHTAASADEKVLPAFEAKADHVYQRTNNGKQHLWKAFDHAYRTFTLESEPFREFIAAQKEDAKPYDDLDELLMYAYRTGGAAGLMLLPILTRRKQDQLKQAAVSLGLAIQLVRFLSDLGTDQQKNRIPRQVMQQFGYTEADLQKGTVNKAFTMTWEYIAFEAEAYLEECQDALPLFPQYSQKTVKAALHLHRAVLEKIRAKQHDVFQYHFALTETEVKQILSDIEGHHHHHH”, the “soluble on expression in E. coli” value was “soluble”. With “MSLIDLKPKVERVDAIQSFVSQETPIVTIHDSDGASGTGYSYTIGTGGPSVMALLEQTLVPALIGKDADRIDGIWRDLLFLTHATAVGPITSLALAAIDIALWDLRCKKMGLPLWKAAGGSRDRIPLYSTEGGWLHLETAALVEDALAMKEQGFRGSKIKIGRAHLSEDRARLGAIRAAVGDSYEIMTDANQGFTLSEAIRRAKVLEEFGIGWFEEPLPADDVLSHQELSRRTHVPIAVGESMYSLSQFKDYLQVGAAQIVQVDVARIGGITPWLKVAHLAEAHSVMVCPHFLMELHLPLVCAVPNAKWLEYIPQLDGVTRQNMQISNGDAVPSDEPGLGIDWDWDAITAQEIGARSIGGAEGHHHHHH” the “soluble on expression in E. coli” value was “not soluble”. For “MSLIELWPAIDLIGSTSVRLTEGKYDSEEKMSRSAEESIAYYSQFECVNRIHIVDLIGAKAQYAREFDYIKSLRRLTTKDIEVGGGIRTKSQIMDYFAAGINYCIVGTKGIQDTDWLKEMAHTFPGRIYLSVDAYGEDIKVNGWEEDTELNLFSFVRQLSDIPLGGIIYTDIAKDGKMSGPNFELTGQLVKATTIPVIASGGIRHQQDIQRLASLNVHAAIIGKAAHQASFWEGLEEGHHHHHH”, the “soluble on expression in E. coli” value was “soluble”. With “MSLIFNKNCNVNKETQIEAFAIKNHDKKFVYPMGNIIGVKANTDGVLVLGYEEEDVDYIGGIQIGDNIVKIDNKRIKNSQDVSEILNKIKKSKVEVTFERKNKYKTEVIETKKENGKYKLGLWVRDKISGIGTMTFYDPSMEKFKAIGHAIKDSDTNELLKIKQGYIYKPEQLKIVKASNEKVGKIKGDFNDSNLMGNFSNNSELGISGNITENHNKEFNVANKEKQLIEVGRPQDVKIGDAVILFEDKNKNITSYDIKIESIVYDKGNYRDMVIKVVDDKLLEYTGGIVQGMSGAPIIQNNKIIGAITHVFRDNPKKGYGIFIDEMIKLEGHHHHHH” the “soluble on expression in E. coli” value was “soluble”. For “MSLIIIISGPPGSGKTSVAIKLANELSYKFISAGKIFRDIAQSMGLDIINLNRVAESNFDIDKMVDKKIHEYVLRERNLIVESHIAGWIFREYTDVAIYLWAPLKIRANRIAIRDKISYVEAVSQIIRREYMHYKRFNKFYGIDINDLSVFDLVINTSNIDINNIVKLILDYLSSVSHNEGHHHHHH”, the “soluble on expression in E. coli” value was “soluble”. In the case of “MSLINLWPLLLPAAAWSGWWLANRSNSNKDAHVHNRLSREYVVGLNYLLNEQSDKAVDVFIKLLEVDSDTVETHLALGSLFRRRGEVDRAIRIHQNLIARPQLSIQQRKEALMALGQDYMSAGVFDRAERIFLEVVELGGSRDTSSLQGLLAIYQQEKAWEKALDIIKKLEISTGASFHNQAAHYYCEMASQALKINAMDRAIYCIKQAMNVDPESVRASLMNATIEIKEGRYKQAIRSLKRVPQQDAEFLTEIIEPLVLCHKELDSMPDCIHYLEQTLEKHPRASVIFVIADYLRQNKGMDIAIDFVADNLSKHPSIRGLNRLIYWHLESAHGKVREKLQMLYDITSKFLDNKPIYRCGHCGFGGKHLHWHCPSCKQWGRMKPIHGLEGDEGHHHHHH”, the “soluble on expression in E. coli” value is reported as “not soluble”. In the case of “MSLIREQVVRPLNAMVDASEKIKNRNFDVMLEETSSTEMGILSRTFNSMAGDLGKLYRGLEHAVNEKTNKLQMANQSLQVLYHSSQELTASRITASNFQTILRHWVALEGICALRLEIEEEAGKPLILQEGKPSGAVMLQTPLTLDGHHLGFLYWEAGSPEPDRALIDNFALILSRAIYYNQAQRQAEQLLLMEERATIARELHDSLAQSLSYLKIQLTLLKRSVTPLKSDGDLSKTENIIREIDKGLSDAYTQLRELLTTFRLTLTEGSFGQSLLGMLTQLSGQTDAKIELNNALSSIALDAHQQVHLVQLIREATINAIKHAKATKIKVNCQEQQGRVQVTIEDDGVGFDLQDHKINHYGMSIMQERAARLRGELKVESAPGKGCKVVLTYQQSEEKNKNEEGHHHHHH”, the “soluble on expression in E. coli” value is reported as “soluble”. For “MSLIRSMTGFGRASNDNGRLGFNVEIKSVNHRYFDLNIKLPRNLISLEEKIRKEVGNKIKRGKVDIFITQNVYDSSTTNVNLNKGLAYNYCECLKQIRDDFNVLDDISVSLISKFPDVITVTQNEEDLDEISSLLLKPINEAVDTMLSMREKEGARLKEDIEGKLTNIEELLVNVEKRAPYTVENYRNKLEERIKDLLVDNQVDEAKLAMEVTIFADKSCIDEEIVRLKSHISQFKSTLSENEPVGRKLDFIVQEMNREANTINSKSNDIDIVHCVLDIKNEIEKIREQIQNIEEGHHHHHH”, the “soluble on expression in E. coli” value was “soluble”. In the case of “MSLIVVTGGAGFIGSHVVDKLSESNEIVVIDNLSSGNEEFVNEAARLVKADLAADDIKDYLKGAEEVWHIAANPDVRIGAENPDEIYRNNVLATYRLLEAMRKAGVSRIVFTSTSTVYGEAKVIPTPEDYPTHPISLYGASKLACEALIESYCHTFDMQAWIYRFANVIGRRSTHGVIYDFIMKLKRNPEELEILGNGEQNKSYIYISDCVDAMLFGLRGDERVNIFNIGSEDQIKVKRIAEIVCEELGLSPRFRFTGGDRGWKGDVPVMLLSIEKLKRLGWKPRYNSEEAVRMAVRDLVEDLDEEGHHHHHH”, the “soluble on expression in E. coli” value is reported as “soluble”. For “MSLKAIIYCRVSTEKTSQETSLARQKHELLTLANKHALEVVATLEERASGFSLDRPVLLECIDAFQRGQADILLCQDDTRLARGHSKIALLHQLRKLGVSIYTIRDQGELRLSEADEMVLDIVAIVEEYQRKLHNKKIKRGMKQAVKNGYRPERNIKQGVSGGRERKELPIKEIVRLRQKNLTFHEIALTLQGLGFNVSKATVHRRYQEYMDEQLHGEGHHHHHH”, the “soluble on expression in E. coli” value was “soluble”. With “MSLKDGKLGLPIPEAVKIIPELNNYVINGKLDFSNRQARILYNKAIAKALFGLDIEYHPKGLVTTPISRYIFLKTFLRGGEVALEIGTGHTAMMALMAEKFFNCKVTATEVDEEFFEYARRNIERNNSNVRLVKSNGGIIKGVVEGTFDVIFSAPPYYDKPLGRVLTEREAIGGGKYGEEFSVKLLEEAFDHLNPGGKVALYLPDKEKLLNVIKERGIKLGYSVKDIKFKVGTRWRHSLIFFKGISEGHHHHHH” the “soluble on expression in E. coli” value was “soluble”. For “MSLKEKLVAIVGPTAVGKTKTSVMLAKRLNGEVISGDSMQVYRGMDIGTAKITAEEMDGVPHHLIDIKDPSESFSVADFQDLATPLITEIHERGRLPFLVGGTGLYVNAVIHQFNLGDIRADEDYRHELEAFVNSYGVQALHDKLSKIDPKAAAAIHPNNYRRVIRALEIIKLTGKTVTEQARHEEETPSPYNLVMIGLTMERDVLYDRINRRVDQMVEEGLIDEAKKLYDRGIRDCQSVQAIGYKEMYDYLDGNVTLEEAIDTLKRNSRRYAKRQLTWFRNKANVTWFDMTDVDFDKKIMEIHNFIAGKLEEKSKEGHHHHHH”, the “soluble on expression in E. coli” value was “soluble”. In the case of “MSLKEYKSKIEFSVYSTSGMKTRMEDYYLCIKNMNKMIQKEKKELTYFGVFDGHVGTSAADYCNFKLYNEIVRSKSFPKNIENAIQDGIINVENGFKEIAMKTKVNAGTTLAIVMIYDNTIYTANVGDSEIVVCYNDGSYVVTSEKHNPSVDKEKARIESAGGKVFYNHGWRVDGLLGVSRSIGDESMKKYVICQPKIWSKAIDSSFQFIIVACDGFWNVFKYEDAINLARNYLFNYSFSNEEDKDSNGIILPRNKGDVSRYLIDIALKRQSFDNITVTICYFNEGHHHHHH”, the “soluble on expression in E. coli” value is reported as “soluble”. In the case of “MSLKGSLMPANVLFSARSELWPVYQPLISTYLREMGIDFDLRRDFPPEEVDYVVYAPNGGLRDFTPFTRLKAVLSLWAGVESIADNPTLTVPLARMVDHGLTQGMTEWVVGHVLRYHLGMDAHIHGLNGDWRQDVPPLASQRQVTILGLGALGEAAARALSALGFQVTGWSRSPKELPGIACLHGPDGLDQALARAEILVLLLPSTAATENTLNTQTLARLPRGARIINPGRGPLIDDDALLAALDSGQVGHATLDVFRIEPLPRDHPYWGHPNVTVTPHIASETRPETAAQVICEEGHHHHHH”, the “soluble on expression in E. coli” value is reported as “soluble”. For “MSLKHLIKNYVQKLIKTELDAIQSKSVHDNRNFIYNGEFLILESEFGLHCFPRVQLNHALSYKNPNFDLGMRHWIVNHCKHDTTYIDIGANVGTFCGIAARHITQGKIIAIEPLTEMENSIRMNVQLNNPLVEFHHFGCAIGENEGENIFEVYEFDNRVSSLYFQKNTDIADKVKNSQVLVRKLSSLDISPTNSVVIKIDAEGAEIEILNQIYEFTEKHNGIEYYICFEFAMGHIQRSNRTFDEIFNIINSKFGSKAYFIHPLSSAEHPEFNKATQDINGNICFKYVSEGHHHHHH”, the “soluble on expression in E. coli” value was “soluble”.
